Measurements: paper PMC3433420, “Comprehensive Binary Interaction Mapping of SH2 Domains via Fluorescence Polarization Reveals Novel Functional Diversification of ErbB Receptors” (PLoS ONE, 2012)
Non-standard residues stand in square brackets, D forms with d. No end group written: not given here. pY = N[C@@H](Cc1ccc(OP(=O)(O)O)cc1)C(=O)O; Rhodamine = not defined here; rhodamine = not defined here

Experiments:
Conditions in all cases: both partners purified
[1] = molecular target: T1, PLCG1 C-terminal SH2 domain (human); test: SPR; Biacore 3000; 6X His SH2 proteins held on a Ni-NTA chip, dye-free peptides in solution, equilibrium
T1 construct: PLCG1, human; source: bacterial expression, purified
T1 sequence (P19174 whole entry, looked up): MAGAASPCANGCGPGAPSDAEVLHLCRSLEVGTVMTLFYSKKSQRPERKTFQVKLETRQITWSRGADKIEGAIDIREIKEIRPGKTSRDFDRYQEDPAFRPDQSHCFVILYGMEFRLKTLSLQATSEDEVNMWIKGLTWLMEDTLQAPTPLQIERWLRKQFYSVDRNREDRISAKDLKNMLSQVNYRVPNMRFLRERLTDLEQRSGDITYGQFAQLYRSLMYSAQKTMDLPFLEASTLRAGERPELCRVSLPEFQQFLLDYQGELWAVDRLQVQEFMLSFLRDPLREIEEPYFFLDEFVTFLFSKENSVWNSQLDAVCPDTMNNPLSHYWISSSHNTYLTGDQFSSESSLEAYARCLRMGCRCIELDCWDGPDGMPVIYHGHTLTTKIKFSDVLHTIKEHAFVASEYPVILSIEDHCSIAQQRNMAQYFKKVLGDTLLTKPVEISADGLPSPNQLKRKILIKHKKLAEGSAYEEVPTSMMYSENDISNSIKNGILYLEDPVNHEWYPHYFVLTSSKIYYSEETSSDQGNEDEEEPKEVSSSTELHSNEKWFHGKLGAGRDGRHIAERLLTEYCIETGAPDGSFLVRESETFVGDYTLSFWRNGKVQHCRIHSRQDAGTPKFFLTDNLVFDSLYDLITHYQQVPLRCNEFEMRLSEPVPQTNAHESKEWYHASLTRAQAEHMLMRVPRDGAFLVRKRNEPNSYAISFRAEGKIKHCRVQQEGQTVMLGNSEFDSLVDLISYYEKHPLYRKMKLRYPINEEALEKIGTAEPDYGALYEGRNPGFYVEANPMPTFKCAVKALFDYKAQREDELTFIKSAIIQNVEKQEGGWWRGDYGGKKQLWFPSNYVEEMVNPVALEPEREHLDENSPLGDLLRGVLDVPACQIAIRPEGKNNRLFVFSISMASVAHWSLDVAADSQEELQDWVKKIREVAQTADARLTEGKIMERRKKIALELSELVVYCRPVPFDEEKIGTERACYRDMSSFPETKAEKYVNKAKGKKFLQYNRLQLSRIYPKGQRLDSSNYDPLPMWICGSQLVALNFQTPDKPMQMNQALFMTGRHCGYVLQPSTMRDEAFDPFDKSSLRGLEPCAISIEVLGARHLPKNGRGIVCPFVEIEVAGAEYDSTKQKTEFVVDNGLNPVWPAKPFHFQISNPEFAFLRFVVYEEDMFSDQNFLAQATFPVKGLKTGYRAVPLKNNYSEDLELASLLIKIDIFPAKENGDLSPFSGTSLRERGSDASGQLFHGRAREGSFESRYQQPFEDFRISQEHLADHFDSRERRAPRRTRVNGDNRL

[2] = molecular target: T2, PIK3R1 N-terminal SH2 domain (human); test: as above
T2 construct: PIK3R1, human; source: bacterial expression, purified

[3] = molecular target: T3, PIK3R3 C-terminal SH2 domain (human); test: as above
T3 construct: PIK3R3, human; source: bacterial expression, purified

GRB7 SH2 domain = molecular target: T4, GRB7 SH2 domain (human, UniProt Q14451 431-527); test: fluorescence polarisation; competition: rhodamine peptide 10 nM, protein at four times its KD, unlabeled competitor peptide in 11 serial 1:3 dilutions; Ki from IC50, one-site model
T4 construct: GRB7, human; source: bacterial expression, purified

[4] = molecular target: T2, PIK3R1 N-terminal SH2 domain; test: fluorescence polarisation; saturation binding in solution: rhodamine peptide fixed at 10 nM, protein titrated 0.002-10 uM, 20 min at room temperature; assay buffer 20 mM HEPES, 100 mM KCl, 0.1% Tween-20, 5 mM DTT, pH 7.8; apparent KD
[5] = molecular target: T3, PIK3R3 C-terminal SH2 domain; test: as above
GRB2 SH2 domain = molecular target: T5, GRB2 SH2 domain (human, UniProt P62993 60-152); test: fluorescence polarisation; competition: rhodamine peptide 10 nM, protein at four times its KD, unlabeled competitor peptide in 11 serial 1:3 dilutions; Ki from IC50, one-site model
T5 construct: GRB2, human; source: bacterial expression, purified

[6] = molecular target: T1, PLCG1 C-terminal SH2 domain; test: fluorescence polarisation; saturation binding in solution: rhodamine peptide fixed at 10 nM, protein titrated 0.002-10 uM, 20 min at room temperature; assay buffer 20 mM HEPES, 100 mM KCl, 0.1% Tween-20, 5 mM DTT, pH 7.8; apparent KD
PTK6 SH2 domain [7] = molecular target: T6, PTK6 SH2 domain (human, UniProt Q13882 78-170); test: fluorescence polarisation; competition; fluorescent peptide 10 nM, protein at four times the calculated KD, unlabeled competitor peptide at 11 serial 1:3 dilutions; at least 20 minutes; IC50 from a four-parameter log-logistic fit, one-site competition model
T6 construct: PTK6, human; SH2 domain; source: bacterial expression culture, purified
T6 sequence (Q13882 78-170): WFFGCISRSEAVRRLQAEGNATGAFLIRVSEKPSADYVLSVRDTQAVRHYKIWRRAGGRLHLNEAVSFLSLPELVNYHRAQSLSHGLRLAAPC

PTK6 SH2 domain [8] = molecular target: T7, PTK6 SH2 domain (human, UniProt Q13882 78-170); test: fluorescence polarisation; saturation binding in solution: rhodamine peptide fixed at 10 nM, protein titrated 0.002-10 uM, 20 min at room temperature; assay buffer 20 mM HEPES, 100 mM KCl, 0.1% Tween-20, 5 mM DTT, pH 7.8; apparent KD
T7 construct: PTK6, human; source: bacterial expression, purified
T7 sequence (Q13882 78-170): as above

PTK6 SH2 domain [9] = molecular target: T6, PTK6 SH2 domain; test: fluorescence polarisation; saturation binding in solution; rhodamine-labeled peptide fixed at 10 nM, protein titrated 0.002-10 µM (twelve two-fold dilutions); 20 minutes at room temperature in the dark; assay buffer 20 mM HEPES, 100 mM KCl, 0.1% Tween-20, 5 mM DTT, pH 7.8; apparent KD; assay detection threshold of 20 µM

T5 sequence (P62993 60-152): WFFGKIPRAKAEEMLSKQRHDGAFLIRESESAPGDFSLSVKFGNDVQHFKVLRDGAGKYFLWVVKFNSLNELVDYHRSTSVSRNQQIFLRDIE
T4 sequence (Q14451 431-527): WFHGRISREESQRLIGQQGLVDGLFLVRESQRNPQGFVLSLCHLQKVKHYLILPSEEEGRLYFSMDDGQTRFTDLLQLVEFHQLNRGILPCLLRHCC

B1: Gab1 pY183 phosphopeptide, dye-free (peptide)
chain: DPQD[pY]LLLINCQD
Kd [1]: 0.146 µM
Kd [2]: 0.722 µM
Kd [3]: 0.137 µM

B2: MET pY1093 phosphopeptide, dye-free (peptide)
chain: FGCV[pY]HGTLLDN
Kd [3]: 3.55 µM

B3: ErbB3pY1260 phosphopeptide, unlabeled competitor (peptide)
peptide: PDED[pY]EYMNRQRD
notes: human ErbB3 around Tyr1260; source: synthetic peptide
Ki (GRB7 SH2 domain): 0.131 µM

B4: KIT pY570 phosphopeptide, dye-free (peptide)
chain: NNYV[pY]IDPTQLPD
Kd [1]: 1.36 µM

B5: Gab1 pY472 phosphopeptide, rhodamine-labelled (peptide)
chain: Rhodamine-QEAN[pY]VPMTPGTD
modifications: reading uncertain
Kd [4]: 2.33 µM
Kd [5]: 0.255 µM

B6: ErbB4pY1208 phosphopeptide, unlabeled competitor (peptide)
peptide: NEPL[pY]LNTFANTD
notes: human ErbB4 around Tyr1208; source: synthetic peptide
Ki (GRB2 SH2 domain): 6.85 µM

B7: ErbB3pY1197 phosphopeptide, unlabeled competitor (peptide)
peptide: EDEE[pY]EYMNRRRD
notes: human ErbB3 around Tyr1197; source: synthetic peptide
Ki (GRB7 SH2 domain): 0.113 µM

B8: Gab1 pY183 phosphopeptide, rhodamine-labelled (peptide)
chain: Rhodamine-DPQD[pY]LLLINCQD
modifications: reading uncertain
Kd [6]: 2.04 µM
Kd [4]: 4.26 µM
Kd [5]: 3.79 µM

B9: ErbB2-pY735 phosphopeptide, unlabeled competitor (peptide)
chain: FGTV[pY]KGIWIPD
IC50 (PTK6 SH2 domain [7]): 148 µM

B10: KIT pY936 phosphopeptide, dye-free (peptide)
chain: TNHI[pY]SNLANCS
Kd [3]: 0.004 µM

B11: ErbB3pY1289 phosphopeptide, rhodamine-labelled (peptide)
peptide: rhodamine-SEQG[pY]EEMRAFQD
modifications: reading uncertain
notes: human ErbB3 around Tyr1289; also called labeled peptide 7; source: synthetic peptide
Kd (PTK6 SH2 domain [8]): 2.11 µM

B12: ErbB2pY1139 phosphopeptide, unlabeled competitor (peptide)
peptide: PQPE[pY]VNQPDVRD
notes: human ErbB2 around Tyr1139; source: synthetic peptide
Ki (GRB2 SH2 domain): 1.71 µM

B13: Gab1 pY472 phosphopeptide, dye-free (peptide)
chain: QEAN[pY]VPMTPGTD
Kd [2]: 0.251 µM
Kd [3]: 0.018 µM

B14: KIT pY570 phosphopeptide, rhodamine-labelled (peptide)
chain: Rhodamine-NNYV[pY]IDPTQLPD
modifications: reading uncertain
Kd [6]: 3.83 µM

B15: ErbB2-pY735 phosphopeptide, rhodamine-labelled (peptide)
chain: Rhodamine-FGTV[pY]KGIWIPD
modifications: reading uncertain
Kd (PTK6 SH2 domain [9]): ≥ 20 µM

B16: MET pY1093 phosphopeptide, rhodamine-labelled (peptide)
chain: rhodamine-FGCV[pY]HGTLLDND
modifications: reading uncertain
Kd [5]: 2.56 µM
